Results as given in the supplement of paper PMC9170038.

Test system: MS2 coat protein
Test: apparent KD of MS2 coat protein; designed switch direction (-1 OFF switch, 1 ON switch): -1; higher = weaker reporter binding
Procedure, shortened: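 Transcription of designed RNA switches on Illumina chips was done by stalled E. coli RNA polymerase. SNAP-549-labelled MS2 coat protein was then titrated in doubling steps from 0.7 or 1.5 nM to 3 µM, with steps of 0.8–1.5 h at the lowest and 10–20 min at the highest concentration. The per-design median over clusters of curve-fitted normalised fluorescence is reported as apparent KD.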

[1] = Eterna round: R95, input ligand: FMN 200 uM
[2] = Eterna round: R95, input ligand: microRNA oligo, concentration not stated
[3] = Eterna round: R95, input ligand: none
[4] = input ligand: microRNA oligo, concentration not stated

## AAAAGGUCAGGAUAUUCAAGAAAAGAAAAGAAAAGAAAAGAGAAGAAGGGACAUGAGGAUCACCCAUGUAAAAG [Default title] (puzzle: Exclusion 4)
[1]
  apparent KD of MS2 coat protein: 24.9 nM
[2]
  apparent KD of MS2 coat protein: 18.9 nM
[3]
  apparent KD of MS2 coat protein: 13.5 nM

## CCGGGUUAUGUUAGGAUAUGUAGGCCGCAACCGGAACAGAAGGGACAUGAGGAUCACCCAUGUGAUAUUCCCGG [Onxexe] (puzzle: Brourd's mod of Exclusion 4)
[2]
  apparent KD of MS2 coat protein: 17.5 nM

## AUUAUAUAGACAGGAUAUUGAUUAUUAUUUUAACAUGAGGAUCACCCAUGUAACCUUAUGUGUAACAAGAAGGGUCAUUUAUUA [Title] (Eterna round: R96, puzzle: Exclusion NG 2)
Input ligand: FMN 200 uM
  apparent KD of MS2 coat protein: 188 nM
[4]
  apparent KD of MS2 coat protein: 99.6 nM
Input ligand: none
  apparent KD of MS2 coat protein: 106 nM

## UCCUUGUUAGGAUAUUGCCUGUGGGCUAAUCUGAAUACAGGUAAGAAGGGACAUGAGGAUCACCCAUGUGACAA [Eternabot (Original) Solution 32] (Eterna round: R97, puzzle: Exclusion 4)
Input ligand: FMN 200 uM
  apparent KD of MS2 coat protein: 39.3 nM
Input ligand: none
  apparent KD of MS2 coat protein: 28.8 nM

## AGGCGCUAGUAGGAUAUCUGGAACGGAUUAUAAAGAGAAGGGCUGACAUGAGGAUCACCCAUGUGACCAAUGCG [Eternabot (L1) Solution 50] (Eterna round: R97, puzzle: Exclusion 6)
Input ligand: FMN 200 uM
  apparent KD of MS2 coat protein: 41.2 nM
Input ligand: none
  apparent KD of MS2 coat protein: 50.6 nM

## UACAUGAGGAUCACCCAUGUCGGGUAAACGAAGGUUACUCAAGAGGAUAUAAAACCGAAAGGGUUUUAGAAGGCUUUUCCUCGA [Eternabot solution 27] (Eterna round: R96, puzzle: Exclusion NG 3)
Input ligand: FMN 200 uM
  apparent KD of MS2 coat protein: 92.3 nM
[4]
  apparent KD of MS2 coat protein: 46 nM
Input ligand: none
  apparent KD of MS2 coat protein: 86.7 nM

## AACCUGAGGCUUUGCUUUAGGUGUACAUGAGGAUCACCCAUGUAGGAUAUGGUAGGCUUUGCUUACCAGAAGGACAUAAUGAUG [JL ENG3 1.16] (Eterna round: R96, puzzle: Exclusion NG 3)
Input ligand: FMN 200 uM
  apparent KD of MS2 coat protein: 81.1 nM
[4]
  apparent KD of MS2 coat protein: 30.6 nM
Input ligand: none
  apparent KD of MS2 coat protein: 55.2 nM

## CAGGAUAGAGGAUAUACAUAGAUACAGAUUCGUGUAAUCCUACAUGAGGAUCACCCAUGUAGAAGGCUAUCCUG [Fiskers Ex 2 - 20] (puzzle: Exclusion 2)
[2]
  apparent KD of MS2 coat protein: 13.2 nM

## AAUUCACAUGAGGAUCACCCAUGUCAGGAUAUGGUGACGCGGGUUUCGGUGCGUGUUGCCAGAAGGGACAGCUA (puzzle: Exclusion 1)
[2]
  apparent KD of MS2 coat protein: 81.3 nM

## AUACCACGAGGAUAUCGUCUAUUUUACAUGAGGAUCACCCAUGUUAUCUUUGUAAUGUUUCGAGAAGGCGUGUUUU [JR_E5_Sub080] (puzzle: Exclusion 5)
[2]
  apparent KD of MS2 coat protein: 31.7 nM

## UUGUUAUAUGUAGGAUAUGCAUAUUGUUGUUAUGCAGAAGGACAUGAGGAUCACCCAUGUAUAUUAUUGUUAUAUAUUGUAUAU [Title] (Eterna round: R96, puzzle: Exclusion NG 1)
[4]
  apparent KD of MS2 coat protein: 20.1 nM

## GGUUUGCGGCAGGAUAUCCAUCCGCGGUAUGGUGGAGAAGGGCUGACAUGAGGAUCACCCAUGUGCGUCCUAGG [salish99_ex6_r4_018] (Eterna round: R97, puzzle: Exclusion 6)
Input ligand: FMN 200 uM
  apparent KD of MS2 coat protein: 24.6 nM
Input ligand: none
  apparent KD of MS2 coat protein: 18.8 nM

## CUUUUGUGAGGAUAUCAGUAGUAAAAAAAUAAAAUUACUACUGAGAAGGCACAUGAGGAUCACCCAUGUUCCUC [salish99_ex4_r3_009] (puzzle: Exclusion 4)
[1]
  apparent KD of MS2 coat protein: 257 nM
[2]
  apparent KD of MS2 coat protein: 39.7 nM
[3]
  apparent KD of MS2 coat protein: 38.4 nM

## CUCGUGGUGAAGGAUAUCCGCGAGAAAAUAAAAGGAGAAGGUCACACAUGAGGAUCACCCAUGUGAUGAAGAAA [Anesanza] (puzzle: Exclusion 6)
[1]
  apparent KD of MS2 coat protein: 16.4 nM
[2]
  apparent KD of MS2 coat protein: 11.6 nM
[3]
  apparent KD of MS2 coat protein: 11.9 nM

## AAGAACGUAGGAUAUACAUGAGGAUCACCCAUGUGAGGAAGGAGUAGGAAGUGUGGAAGUAGAAGGACGGAGAG [JR_Exclu3_Sub076] (puzzle: Exclusion 3)
[1]
  apparent KD of MS2 coat protein: 31.5 nM
[2]
  apparent KD of MS2 coat protein: 35.4 nM
[3]
  apparent KD of MS2 coat protein: 33.8 nM

## AGAAGUAGUAACCGAUCCUACAUGAGGAUCACCCAUGUAGCUAGACGUGCACGCGAAGCUCGUCAGACUACCAGAUG [salish99_TOv1_r3_023] (puzzle: Sensor v3, turn-off variant 1)
[1]
  apparent KD of MS2 coat protein: 298 nM
[2]
  apparent KD of MS2 coat protein: 273 nM
[3]
  apparent KD of MS2 coat protein: 212 nM

## AGCCUCUAAGGAUAUACAUGAGGAUCACCCAUGUACUUAGAAGGGAAACCUUCUAUAUGUAGAAGGUAGAAGCA [Exclusion 3 S1] (Eterna round: R97, puzzle: Exclusion 3)
Input ligand: FMN 200 uM
  apparent KD of MS2 coat protein: 16 nM
Input ligand: none
  apparent KD of MS2 coat protein: 12.7 nM

## UUUUAACAUGAGGAUCACCCAUGUGAGGAUAUCGAAAUUUAUAUUAAUAUUUAUAAUACGAGAAGGCACAUUUU [JMF 54] (puzzle: Exclusion 1)
[2]
  apparent KD of MS2 coat protein: 84.4 nM

## CAAUAACAAGCGAGAUCCUACAUGAGGAUCACCCAUGUGCUCGUCUUAUAAGGUACUGUGACGAUAGUCACGGUACC [Mat - Sensor, turn-off var - Eli Mod - D97] (Eterna round: R97, puzzle: Sensor, turn-off variant 1)
Input ligand: FMN 200 uM
  apparent KD of MS2 coat protein: 18.9 nM
Input ligand: none
  apparent KD of MS2 coat protein: 19.6 nM

## CAGCUGAAAGUGAGGAUAUCUAGAGCUUCGGCUCUAGAGAAGGCACAUGAGGAUCACCCAUGUCUCAACAGCUG [BmEx4/1-A1] (Eterna round: R97, puzzle: Brourd's mod of Exclusion 4)
Input ligand: FMN 200 uM
  apparent KD of MS2 coat protein: 59.5 nM
Input ligand: none
  apparent KD of MS2 coat protein: 16.9 nM

## GAGCUAUGAGGAUAUGCAUAUAUACGGAUUCGUGUAGUACUACAUGAGGAUCACCCAUGUAGAAGGCGUGGCUG [JL-ex2-2.03 mat747 mod] (puzzle: Exclusion 2)
[2]
  apparent KD of MS2 coat protein: 13.2 nM

## GACAUUUGAGGAUAUGCAGCUAGCUUCGUUUUCAAAUCGAGACAUGAGGAUCACCCAUGUAGAAGGCAAGGUCG [Eternabot (L1) Solution 88] (Eterna round: R97, puzzle: Exclusion 2)
Input ligand: FMN 200 uM
  apparent KD of MS2 coat protein: 29.4 nM
Input ligand: none
  apparent KD of MS2 coat protein: 31.9 nM

## UUUUCUUUUGUGAGGAUAUACUUCUUUUUCUUUUUGUAGAAGGCACAUGAGGAUCACCCAUGUUUUCUUUUCUC [JR_BME4_Sub028] (puzzle: Brourd's mod of Exclusion 4)
[2]
  apparent KD of MS2 coat protein: 13.7 nM

## ACAUGUCAUCGAGGAUAUUGUACACAUGAGGAUCACCCAUGUACUCGGUUGCUCUAGCAUGCGUUCGAGAAGGCGAUGUACAUU [Ex NG2 #98] (Eterna round: R96, puzzle: Exclusion NG 2)
Input ligand: FMN 200 uM
  apparent KD of MS2 coat protein: 52 nM
[4]
  apparent KD of MS2 coat protein: 88.8 nM
Input ligand: none
  apparent KD of MS2 coat protein: 144 nM

## AAGAAACAUGAGGAUCACCCAUGUGAGGAUAUGACAAAGAAAAGAAAAGAAAGAAGACUCAGAAGGCACAAAGG [salish99-ex1_r3_039] (puzzle: Exclusion 1)
[1]
  apparent KD of MS2 coat protein: 46.3 nM
[2]
  apparent KD of MS2 coat protein: 40.6 nM
[3]
  apparent KD of MS2 coat protein: 52 nM

## CCUCACAGAGGAUAUACGUCCACUGAACCCAUGAGGUUGCCACAUGAGGAUCACCCAUGUAGAAGGCUGUGCUG [Mageanma] (puzzle: Exclusion 2)
[2]
  apparent KD of MS2 coat protein: 18.9 nM

## CUAAACGCAGGAUAUACAUGAGGAUCACCCAUGUUUGGCCAGUAAACAAGUCGUCUUAGUAGAAGGGCGUUUAG [Eternabot (Original) Solution 42] (Eterna round: R97, puzzle: Exclusion 3)
Input ligand: FMN 200 uM
  apparent KD of MS2 coat protein: 544 nM
Input ligand: none
  apparent KD of MS2 coat protein: 40.1 nM

## GUCGUGUUAGGAUAUGGCAACGGCUAGUAAACUAGUUGUUGUUAGAAGGAACAUGAGGAUCACCCAUGUAUGAC [-24.6, -24.1 kcal, A 30%] (Eterna round: R97, puzzle: Exclusion 4)
Input ligand: FMN 200 uM
  apparent KD of MS2 coat protein: 98.1 nM
Input ligand: none
  apparent KD of MS2 coat protein: 34.4 nM

## CAGUACUGAGGAUAUACAUGAGGAUCACCCAUGUGUUCCAGCUAGGAAACUAGCAAGUGUAGAAGGCAGUACUG [Salish 065 m7] (Eterna round: R97, puzzle: Exclusion 3)
Input ligand: FMN 200 uM
  apparent KD of MS2 coat protein: 1090 nM
Input ligand: none
  apparent KD of MS2 coat protein: 410 nM

## CCGAAACAUGAGGAUCACCCAUGUGAGGAUAUGAGCGUCUAGUUGAGAGAUUGGACGCUCAGAAGGCACAAAGG [JR_Ex1_Sub074] (Eterna round: R97, puzzle: Exclusion 1)
Input ligand: FMN 200 uM
  apparent KD of MS2 coat protein: 105 nM
Input ligand: none
  apparent KD of MS2 coat protein: 35.5 nM

## UAGAUGGGAGGAUAUGCAUAGAUACAGAUUCGUGUAGUGCUACAUGAGGAUCACCCAUGUAGAAGGCCCGUCUU [JL-ex2-2.22 Mayanne mod] (puzzle: Exclusion 2)
[2]
  apparent KD of MS2 coat protein: 14.2 nM

## AUUAGUAUCUAGGAUAUCUAGUACAUAGUAUCUAGAGAAGGAGAUACAUGAGGAUCACCCAUGUUCUGUGUUCU [Exclusion 6 - 1:d] (puzzle: Exclusion 6)
[2]
  apparent KD of MS2 coat protein: 20.3 nM

## CAGUACAGAGGAUAUACAUGAGGAUCACCCAUGUGUUUCAGCAUCGAAAGAUGCGAAUGUAGAAGGCUGUACUG [jl-ex3-4.26 salish99 mod] (Eterna round: R97, puzzle: Exclusion 3)
Input ligand: FMN 200 uM
  apparent KD of MS2 coat protein: 313 nM
Input ligand: none
  apparent KD of MS2 coat protein: 26.5 nM

## AACAAUAAGGAGGAUAUCGUAUCGGAAACGAUACGAGAAGGCUUAACAUGAGGAUCACCCAUGUUCUUCAAUAA [Fiskers Ex 6 - 24] (puzzle: Exclusion 6)
[1]
  apparent KD of MS2 coat protein: 19.1 nM
[2]
  apparent KD of MS2 coat protein: 17.1 nM
[3]
  apparent KD of MS2 coat protein: 17.7 nM

## AGGUGAGCCGUCAGGAUAUGCGUUCCGUAGGGUCAGCAGAAGGGACAUGAGGAUCACCCAUGUUUCGCACGUGG [Veraxedi] (puzzle: Brourd's mod of Exclusion 4)
[2]
  apparent KD of MS2 coat protein: 31 nM

## GGAUCUUGGGUCAGGAUAUGCUGAUAGUUAUGUCAGCAGAAGGGACAUGAGGAUCACCCAUGUGCUUGGUUUUG [Magic-17] (Eterna round: R96, puzzle: Brourd's mod of Exclusion 4)
Input ligand: FMN 200 uM
  apparent KD of MS2 coat protein: 40.9 nM
[4]
  apparent KD of MS2 coat protein: 12.7 nM
Input ligand: none
  apparent KD of MS2 coat protein: 17.2 nM
